Data: patent publication US20140242075A1

Assays:
C1q (human) [1] = target: C1q (human) (UniProt P02745); experiment: cell-based or functional assay
C1q (human) [2] = target: C1q (human) (UniProt P02745); experiment: C1q binding ELISA: antibody coated in a dilution series (0.58-10 µg/mL), 3% pooled human serum as source of C1q, rabbit anti-human C1q and swine anti-rabbit IgG-HRP, ABTS, OD 405 nm
C1q (human) [3] = target: C1q (human) (UniProt P02745); experiment: FACS, C1q titrated on mAb-opsonized Raji cells; Exp. 1
C1q (human) [4] = target: C1q (human) (UniProt P02745); experiment: FACS, C1q titrated on mAb-opsonized Raji cells; Exp. 3
C1q (human) [5] = target: C1q (human) (UniProt P02745); experiment: FACS, C1q titrated on mAb-opsonized Daudi cells; Exp. 1
C1q (human) [6] = target: C1q (human) (UniProt P02745); experiment: C1q ELISA, coated antibody series + 3% human serum; mean
C1q (human) [7] = target: C1q (human) (UniProt P02745); experiment: FACS, C1q titrated on mAb-opsonized Daudi cells; Exp. 10
C1q (human) [8] = target: C1q (human) (UniProt P02745); experiment: FACS, C1q titrated on mAb-opsonized Daudi cells; Exp. 11
C1q (human) [9] = target: C1q (human) (UniProt P02745); experiment: FACS, C1q titrated on Daudi cells opsonized with the mix; Exp. 6

Sequence of C1q (human) (P02745 23-245 limits assumed, chain 1 of 3): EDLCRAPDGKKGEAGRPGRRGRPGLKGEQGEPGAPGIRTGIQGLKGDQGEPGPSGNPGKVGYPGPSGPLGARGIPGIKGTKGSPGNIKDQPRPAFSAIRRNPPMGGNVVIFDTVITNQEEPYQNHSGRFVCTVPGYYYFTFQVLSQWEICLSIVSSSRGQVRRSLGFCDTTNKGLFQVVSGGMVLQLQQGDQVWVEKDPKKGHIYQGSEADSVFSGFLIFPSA
Sequence of C1q (human) (P02746 28-253 limits assumed, chain 2 of 3, further chain): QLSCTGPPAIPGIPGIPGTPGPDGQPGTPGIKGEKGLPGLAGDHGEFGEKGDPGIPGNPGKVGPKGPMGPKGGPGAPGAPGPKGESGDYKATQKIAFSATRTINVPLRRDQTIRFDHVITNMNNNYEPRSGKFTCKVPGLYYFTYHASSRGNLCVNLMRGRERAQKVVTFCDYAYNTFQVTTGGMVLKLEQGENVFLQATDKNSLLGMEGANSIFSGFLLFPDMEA
Sequence of C1q (human) (P02747 29-245 limits assumed, chain 3 of 3, further chain): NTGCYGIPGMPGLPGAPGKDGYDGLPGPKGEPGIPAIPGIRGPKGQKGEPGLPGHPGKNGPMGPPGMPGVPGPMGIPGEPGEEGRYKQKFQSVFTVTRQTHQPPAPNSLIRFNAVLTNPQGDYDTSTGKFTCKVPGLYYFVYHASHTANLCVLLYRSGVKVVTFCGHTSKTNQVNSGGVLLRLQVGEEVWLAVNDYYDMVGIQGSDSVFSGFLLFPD
Sequence of IgG1-7D8-E345R (antibody) (heavy, form in doubt): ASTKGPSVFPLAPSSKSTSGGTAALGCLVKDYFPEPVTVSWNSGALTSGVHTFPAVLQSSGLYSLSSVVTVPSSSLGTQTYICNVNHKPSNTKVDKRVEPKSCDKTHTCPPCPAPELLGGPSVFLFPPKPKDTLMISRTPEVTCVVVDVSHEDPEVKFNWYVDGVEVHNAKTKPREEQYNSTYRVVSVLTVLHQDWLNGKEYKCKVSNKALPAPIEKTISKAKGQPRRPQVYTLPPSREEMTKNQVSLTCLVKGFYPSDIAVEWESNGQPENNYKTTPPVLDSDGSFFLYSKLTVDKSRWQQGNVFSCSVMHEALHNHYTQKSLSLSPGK

| Substance | CH50 for C1q efficacy in a CDC assay on Raji cells (C1q (human) [1]) [µg/mL] | further results |
| --- | --- | --- |
| IgG1-7D8-H433R (antibody) | 0.16 |  |
| IgG1-7D8-K439E/S440K (antibody) | 0.09 |  |
| IgG1-7D8-K439E (antibody) | > 30 |  |
| IgG1-7D8-I253Y (antibody) | 16.1 |  |
| IgG1-7D8-H433A (antibody) | > 30 |  |
| IgG1-7D8-I253D (antibody) | > 30 |  |
| IgG1-7D8-Y436D (antibody) | > 30 |  |
| IgG1-7D8-H310K (antibody) | > 30 |  |
| IgG1-7D8-H435A (antibody) | 0.96 |  |
| IgG1-7D8-H433D (antibody) | > 30 |  |
| IgG1-7D8-I253A (antibody) | 11.2 |  |
| IgG1-7D8-S440K (antibody) | > 30 |  |
| IgG1-7D8-H435R (antibody) | 0.24 | EC50 (read off the curve) (C1q (human) [2]): 2 µg/mL |
| IgG1-7D8-E345R (antibody) | 0.03 |  |
| IgG1-7D8-I253D/H433A (antibody) | > 30 |  |
| IgG1-7D8-E382R (antibody) | 0.77 |  |
| IgG1-7D8-WT (antibody) | 0.49 | Kd (C1q (human) [3]): 4.8 nM; Kd (C1q (human) [4]): 10.9 nM; Kd (C1q (human) [5]): 7.7 nM; EC50 (C1q (human) [6]): 2.05 µg/mL; Kd (C1q (human) [7]): 11.8 nM; Kd (C1q (human) [8]): 13.3 nM |
| IgG1-7D8-N434A (antibody) | 21.2 |  |
| IgG1-7D8-Q311A (antibody) | 0.63 |  |
| IgG1-7D8-G385D (antibody) | 22.5 |  |
| IgG1-7D8-Q438D (antibody) | > 30 |  |
| IgG1-7D8-K322A (antibody) | > 30 | EC50 calculated from the CDC assay on Daudi cells (antibody concentration resulting in 50% lysis) (C1q (human) [1]): > 30 µg/mL |
| 7D8-K439E + 7D8-S440K mix | 1.33 | Kd (C1q (human) [9]): 3.6 nM |
